Square brackets hold non-standard residues; d marks the D form. Ends that are not written are not given here. * marks the point of attachment. Palmitoyl = CCCCCCCCCCCCCCCC(=O)*; pS = N[C@@H](COP(=O)(O)O)C(=O)O
Key:
[1] = tested on: MC3T3-E1 mouse calvarial osteoblasts; assay: Growth and differentiation of MC3T3-E1 osteoblasts on self assembled nanofibers coated on glass; type: cell-based
Procedure: Cell culture preparation includes treating glass coverslips overnight in 100% ethanol. […] of SEQ ID NO:1, was spin-coated at 1500 r.p.m. for 30 seconds onto the treated glass cover slips. Samples were dried under vacuum to promote self-assembly on the glass surface. Samples were then immersed in 10% iodine for 15 minutes to cross-link the assembled PA nanofibers. Cross-linked samples were thoroughly, but gently rinsed by immersion in water 3×. Rinsed slides were dried by vacuum desiccation and placed in a 24-well tissue culture well plate. MC3T3-E1 mouse calvarial osteoblasts were plated at 10,000 cells/coverslip in 1 mL of MEM-a culture medium containing 10% fetal bovine serum, 1% penicillin/streptomycin, 30 mM β-glycerolphosphate, and […] ascorbic acid. The medium was exchanged every 3 days.

[2] = Gelation / self assembly of peptide amphiphile solutions, TEM of bulk gels; type: physicochemical
Procedure: Synthesis of peptide amphiphile, SEQ ID NO:1, was synthesized with standard Fmoc chemistry on an Applied Biosystems […] automated peptide synthesizer. The peptide was grown from the C terminus to N terminus with the sequence CCCCGGGSS(P)DS(P)D, SEQ ID NO:1, and the N terminus was capped with a 16 carbon fatty acid. The synthesis of the peptide amphiphile, SED ID NO:1, was verified by ESI mass spectroscopy indicating correct molecular weight. […] To confirm the formation of fibers, transmission electron microscopy (TEM) images of these bulk gels were taken and are shown in FIG. 3. Fibers on the order of 5-10 nm in diameter can be seen, as well as globular micelles ranging from 10-15 nm in diameter.

[3] = Coassembly of negatively and positively charged peptide amphiphiles; type: physicochemical; settings: 10 mg/mL, mixed with approximately 3 molar equivalents of SEQ ID NO:22
Excerpt: This example illustrates the self assembly of negatively charged peptide amphiphiles using positively charged peptide amphiphiles, coassembly, to induce nanofiber gel formation. […] Similar approaches may be applied using variations the charged molecules involved.

C16H31O-CCCCGGGSS(P)DS(P)D (Palmitoyl-CCCCGGGS[pS]D[pS]D; not fully specified (C-terminus); cysteine pairing not given here) [SEQ ID NO 1, peptide amphiphile: alkyl tail C16H31O, structural peptide CCCCGGG, functional peptide SS*DS*D]
cell adhesion and spreading on nanofiber-coated glass slides ([1]; MC3T3-E1, 10,000 cells/coverslip, iodine cross-linked nanofibers): adhering and spreading
osteoblastic differentiation, mineral by Von Kossa staining ([1]; MC3T3-E1, 17 days of culture): producing significant mineral
cell layer on self assembled peptide amphiphile coated glass ([1]; MC3T3-E1, after 12 days (FIG. 4B legend)): confluent layer
gelation of solution ([2]; 1% and 0.1% solutions, HCl and Ca2+ addition): found to gel
globular micelle diameter (TEM) ([2]; bulk gels): 10-15 nm
nanofiber diameter (TEM) ([2]; bulk gels): 5-10 nm

SEQ ID NO:25: peptide amphiphiles having an SSDSD peptide sequence; negatively charged; possibly the SEQ ID NO:1 amphiphile (also: alkyl tail)
result of coassembly [3]: self-supporting PA nanofiber gel
